In patent US20120114652A1 (AbbVie / Abbott, published 2012):

How the values were obtained:
[1] = target: T1, rat PAI-1 (rat, UniProt P20961 24-402); test: IgG competition ELISA (DELFIA) against biotinylated human PAI-1, one-site binding analysis; column Rat
T1 construct: bought (US Biological)
T1 sequence: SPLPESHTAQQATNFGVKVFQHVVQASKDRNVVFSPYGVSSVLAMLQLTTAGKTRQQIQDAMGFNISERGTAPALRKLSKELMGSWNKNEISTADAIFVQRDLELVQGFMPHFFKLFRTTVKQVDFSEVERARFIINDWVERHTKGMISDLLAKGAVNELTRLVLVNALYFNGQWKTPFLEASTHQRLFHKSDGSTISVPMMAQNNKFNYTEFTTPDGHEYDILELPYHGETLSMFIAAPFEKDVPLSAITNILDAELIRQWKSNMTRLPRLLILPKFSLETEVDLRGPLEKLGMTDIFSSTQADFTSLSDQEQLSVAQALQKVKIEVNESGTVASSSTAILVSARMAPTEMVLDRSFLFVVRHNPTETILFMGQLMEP

[2] = target: T2, α2-antiplasmin (UniProt P08697 40-491, limits assumed); test: competition ELISA (DELFIA): PICK167_A01 IgG1 coated on the plate, biotinylated human PAI-1, titration of the unlabelled test antigen
T2 sequence (looked up): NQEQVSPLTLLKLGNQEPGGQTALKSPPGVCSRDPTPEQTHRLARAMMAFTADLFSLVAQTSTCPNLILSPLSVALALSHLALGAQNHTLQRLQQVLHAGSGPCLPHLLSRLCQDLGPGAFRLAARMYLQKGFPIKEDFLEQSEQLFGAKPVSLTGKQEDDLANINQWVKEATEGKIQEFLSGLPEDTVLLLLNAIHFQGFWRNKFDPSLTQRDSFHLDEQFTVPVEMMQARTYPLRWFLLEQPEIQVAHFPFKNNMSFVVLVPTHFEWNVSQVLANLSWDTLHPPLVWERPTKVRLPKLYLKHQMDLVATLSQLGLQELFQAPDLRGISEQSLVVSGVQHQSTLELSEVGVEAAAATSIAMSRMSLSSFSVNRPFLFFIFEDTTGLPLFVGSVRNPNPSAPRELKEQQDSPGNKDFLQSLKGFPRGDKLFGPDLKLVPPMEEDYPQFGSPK

[3] = target: PAI-2 (UniProt P05120 1-415, limits assumed); test: as above
Chain of PAI-2 (P05120 whole entry): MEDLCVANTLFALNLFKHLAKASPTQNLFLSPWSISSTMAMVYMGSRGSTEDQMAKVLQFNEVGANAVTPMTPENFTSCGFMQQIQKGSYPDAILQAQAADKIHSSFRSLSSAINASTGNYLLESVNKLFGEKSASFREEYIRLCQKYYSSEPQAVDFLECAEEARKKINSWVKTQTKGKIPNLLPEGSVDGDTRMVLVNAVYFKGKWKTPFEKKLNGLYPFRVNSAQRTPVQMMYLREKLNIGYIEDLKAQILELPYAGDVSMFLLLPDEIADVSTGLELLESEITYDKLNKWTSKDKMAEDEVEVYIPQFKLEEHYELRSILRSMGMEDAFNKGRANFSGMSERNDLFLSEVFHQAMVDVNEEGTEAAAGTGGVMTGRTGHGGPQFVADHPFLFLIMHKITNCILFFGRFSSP

[4] = target: T3, α1-antitrypsin (UniProt P01009 25-418); test: as above
T3 construct: also called alpha-1-antitrypsin
T3 sequence (P01009 25-418 limits assumed): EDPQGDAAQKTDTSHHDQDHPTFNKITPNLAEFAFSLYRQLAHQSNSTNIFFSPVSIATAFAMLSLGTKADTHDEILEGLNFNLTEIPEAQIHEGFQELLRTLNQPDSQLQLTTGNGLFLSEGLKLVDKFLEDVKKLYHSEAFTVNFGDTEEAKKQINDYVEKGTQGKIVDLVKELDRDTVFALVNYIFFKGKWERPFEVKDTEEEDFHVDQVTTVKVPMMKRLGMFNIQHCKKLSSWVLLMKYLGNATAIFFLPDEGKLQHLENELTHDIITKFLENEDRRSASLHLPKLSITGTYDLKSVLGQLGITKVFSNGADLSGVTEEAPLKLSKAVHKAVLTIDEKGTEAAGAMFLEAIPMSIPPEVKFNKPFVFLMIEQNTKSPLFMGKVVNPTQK

B1: PICK167_A01 IgG1 (antibody, V domains shown)
VH: QVQLQQSGAEVKKPGSSVKVSCKASGGTFSSYAISWVRQAPGQRLEWMGGIIPTFGTANYAQKFQGRVTITADESTSTAYMELSGLRSEDTAVYYCARERRQWLEGHFDYWGRGTPVTVSS
VL: DIQMTQSPSFLSASIGDRVTITCRASEGIYHNLAWYQQKPGKAPKLLIYKASSLASGAPSRFSGSRSGTDFTLTISSLQPDDFATYYCQQYSNYPLTFGGGTKLEIKR
Question: Which results are given for B1?
Answer: fold difference in observed binding KD compared to human wild-type active [1]: 9.7 fold; binding result [2]: no binding (tested: log M about -6.3 (about 5e-7 M)); binding result [3]: no binding (tested: log M about -6.3 (about 5e-7 M)); binding result [4]: no binding (tested: log M about -6.3 (about 5e-7 M))
